Assay results as given in patent publication US20140086829A1 (BIOREC S A, published 2014).

Key:
[1] = target: T1, isoform 121 of human VEGF-A (Peprotech) (human, UniProt P15692-9 27-147); assay: ELISA; antigen coated 1 µg/ml; Fab 10 µg/mL; 9E10-peroxidase
T1 construct: also called human VEGF121; VEGF 121
T1 sequence (looked up): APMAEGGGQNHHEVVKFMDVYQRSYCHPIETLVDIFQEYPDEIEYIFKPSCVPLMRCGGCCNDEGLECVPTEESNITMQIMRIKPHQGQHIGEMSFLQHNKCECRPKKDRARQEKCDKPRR
Protocol: (§1) After blocking the plates with PBS-skimmed milk 4%, the Fab antibody fragments diluted in PBS-skimmed milk 4% were added at a 10 μg/mL concentration, and incubated for 1 h at 22° C. After several washes, 9E10 monoclonal antibody conjugated to peroxidase was added for 1 hour. After washing, the fragments bound to the solid phase were detected by the addition of substrate solution. The absorbance was read at 492 nm in a microplate reader.

[2] = target: T2, isoform 165 of human VEGF-A (Peprotech) (human, UniProt P15692-4 27-191); assay: as above
T2 construct: also called human VEGF165; VEGF 165
Target sequence in this assay (P15692 other isoform, or with tags, fused parts or gaps limits assumed): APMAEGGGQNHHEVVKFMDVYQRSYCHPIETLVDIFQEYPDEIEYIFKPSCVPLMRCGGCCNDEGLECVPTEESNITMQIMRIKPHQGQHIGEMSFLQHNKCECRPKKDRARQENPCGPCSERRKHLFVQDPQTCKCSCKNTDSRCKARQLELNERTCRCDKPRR
Protocol: as §1

mouse VEGF (Peprotech) [3] = target: T3, mouse VEGF (Peprotech) (mouse, UniProt Q00731-2 27-190, limits assumed); assay: as above
T3 construct: also called Mouse VEGF-A
T3 sequence (looked up): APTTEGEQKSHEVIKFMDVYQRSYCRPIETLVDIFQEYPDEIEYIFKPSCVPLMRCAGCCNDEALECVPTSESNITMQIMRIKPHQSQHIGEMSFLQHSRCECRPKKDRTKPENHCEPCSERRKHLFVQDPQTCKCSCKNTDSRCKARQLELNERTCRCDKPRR

P64K-VEGFKDR- (human) [4] = target: P64K-VEGFKDR- (human) (UniProt P15692); assay: as above
[5] = target: T1, isoform 121 of human VEGF-A (Peprotech); assay: competition ELISA: human VEGF-A isoform 121 coated, scFv varied, blocked ligand soluble KDR-Fc (VEGFR2) at 0.5 ug/mL, bound KDR-Fc detected with anti-human IgG-HRPO, absorbance 492 nm
Description: Detection of bound soluble receptors was made using anti human IgG antibodies conjugated with HRPO.

P64K-VEGFKDR- (human) [6] = target: P64K-VEGFKDR- (human) (UniProt P15692); assay: ELISA; antigen coated 1 µg/ml; scFv 10 µg/mL; 9E10-peroxidase
[7] = target: T2, isoform 165 of human VEGF-A (Peprotech); assay: SPR, BIAcore-X
Protocol: (§2) A CM5 sensor chip was activated via the covalent binding of human VEGF using N-Ethyl-N′-(3-dimethylaminopropyl)carbodihimide hydrochloride (EDC) and N-hydroxysuccinimide (NHS), according to the manufacturer's instructions.
(§3) The kinetic parameters and the equilibrium dissociation constants (KD) were calculated using the BIA Evaluation 3.2 software. The binding data were globally adjusted to a Langmuir 1:1 binding model.

[8] = target: T1, isoform 121 of human VEGF-A (Peprotech); assay: ELISA; antigen coated 1 µg/ml; scFv 10 µg/mL; 9E10-peroxidase
Protocol: (§4) After several washes, 9E10 monoclonal antibody conjugated to peroxidase was added for 1 hour. After washing, the fragments bound to the solid phase were detected by the addition of substrate solution. The absorbance was read at 492 nm in a microplate reader.

[9] = target: T2, isoform 165 of human VEGF-A (Peprotech); assay: as above
Target sequence in this assay (P15692 other isoform, or with tags, fused parts or gaps limits assumed): as the sequence (P15692 other isoform, or with tags, fused parts or gaps limits assumed) above
Protocol: as §4

mouse VEGF (Peprotech) [10] = target: T3, mouse VEGF (Peprotech); assay: as above
Protocol: as §4

[11] = target: T2, isoform 165 of human VEGF-A (Peprotech); assay: SPR, BIAcore-X; VEGF 165 coupled to CM5 chip; scFv injected; Langmuir 1:1
Target sequence in this assay (P15692 other isoform, or with tags, fused parts or gaps limits assumed): as the sequence (P15692 other isoform, or with tags, fused parts or gaps limits assumed) above
Protocol: as §2, §3

human GST-VEGF = target: T4, human GST-VEGF (human, UniProt P15692-9 27-147); assay: competition ELISA on coated GST-VEGF with soluble scFv 2H1
T4 construct: also called GST-VEGF humano; not shown: GST fusion partner
T4 sequence (looked up): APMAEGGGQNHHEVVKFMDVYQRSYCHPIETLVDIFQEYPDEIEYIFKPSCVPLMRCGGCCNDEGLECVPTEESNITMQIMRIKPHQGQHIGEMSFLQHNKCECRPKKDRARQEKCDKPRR

B1: Fab 2H1-32 (Fab, V domains shown)
VH: QVQLVQSGAEVKKPGESLKISCKGSGYSFTSYWIGWVRQMPGKGLEWMGIIYPGDSDTRYSPSFQGQVTISADKSISTAYLQWSSLKASDTAMYYCARLVVRDTEIWGQGTMVTVSS
VL: QAVVTQEPSLTVSPGGTVTLTCASSIGAVTSGNYPNWFQQRPGQPPRALIYSTSNKHSWTPARFSGSLLGGKAALTLSGAQPEDEAEYYCLLSYSGARPVFGGGTKLTVLG
For B1, the “absorbance at 492 nm” value [1] was 0.589, the “absorbance at 492 nm” value [2] was 0.601 and the “absorbance at 492 nm” value (mouse VEGF (Peprotech) [3]) was 0.091. It also gave an absorbance at 492 nm (P64K-VEGFKDR- (human) [4]) of 0.704.

B2: Fab L3H6 (Fab, V domains shown)
VH: QVQLVQSGAEVKKPGESLKISCKGSGYSFTSYWIGWVRQMPGKGLEWMGIIYPGDSDTRYSPSFQGQVTISADKSISTAYLQWSSLKASDTAMYYCARQGTHNRKIWGQGTMVTVSS
VL: QAVVTQEPSLTVSPGGTVTLTCASSTGAVTSGNYPNWFQQRPGQPPRALIYSTSNKHSWTPARFSGSLLGGKAALTLSGAQPEDEAEYYCRLSYDLARPVFGGGTKLTVLG
notes: The entries are the mature chains without the six histidines and c-myc that the heavy chain carried at its C-terminus in the assay
With B2 the “absorbance at 492 nm” value [1] was 2.56, the “absorbance at 492 nm” value [2] was 2.46 and the “absorbance at 492 nm” value (mouse VEGF (Peprotech) [3]) was 1.19. It also gave an absorbance at 492 nm (P64K-VEGFKDR- (human) [4]) of 2.6.

B3: Fab L3H7 (Fab, V domains shown)
VH: QVQLVQSGAEVKKPGESLKISCKGSGYSFTSYWIGWVRQMPGKGLEWMGIIYPGDSDTRYSPSFQGQVTISADKSISTAYLQWSSLKASDTAMYYCARPYATDTRIWGQGTMVTVSS
VL: QAVVTQEPSLTVSPGGTVTLTCASSTGAVTSGNYPNWFQQRPGQPPRALIYSTSNKHSWTPARFSGSLLGGKAALTLSGAQPEDEAEYYCRLSYDLARPVFGGGTKLTVLG
notes: Entries lack the six histidines and c-myc of the heavy chain
For B3, the “absorbance at 492 nm” value [1] was 2.22, the “absorbance at 492 nm” value [2] was 2.2 and the “absorbance at 492 nm” value (mouse VEGF (Peprotech) [3]) was 1.1. For the same binder, the absorbance at 492 nm (P64K-VEGFKDR- (human) [4]) was 2.42.

B4: Fab L3H5 (Fab, V domains shown)
VH: QVQLVQSGAEVKKPGESLKISCKGSGYSFTSYWIGWVRQMPGKGLEWMGIIYPGDSDTRYSPSFQGQVTISADKSISTAYLQWSSLKASDTAMYYCARLVHRYRAIWGQGTMVTVSS
VL: QAVVTQEPSLTVSPGGTVTLTCASSTGAVTSGNYPNWFQQRPGQPPRALIYSTSNKHSWTPARFSGSLLGGKAALTLSGAQPEDEAEYYCRLSYDLARPVFGGGTKLTVLG
notes: as for B3
With B4 the “absorbance at 492 nm” value [1] was 2.25, the “absorbance at 492 nm” value [2] was 2.35 and the “absorbance at 492 nm” value (mouse VEGF (Peprotech) [3]) was 1.09. It also gave an absorbance at 492 nm (P64K-VEGFKDR- (human) [4]) of 2.51.

B5: scFv L3H6 antibody fragment (scFv)
scFv: QQVQLVQSGAEVKKPGESLKISCKGSGYSFTSYWIGWVRQMPGKGLEWMGIIYPGDSDTRYSPSFQGQVTISADKSISTAYLQWSSLKASDTAMYYCARQGTHNRKIWGQGTMVTVSSAPQAKSSGSGSESKVDQAVVTQEPSLTVSPGGTVTLTCASSTGAVTSGNYPNWFQQRPGQPPRALIYSTSNKHSWTPARFSGSLLGGKAALTLSGAQPEDEAEYYCRLSYDLARPVFGGGTKLTVLG
notes: soluble, from E. coli
B5 was tested, and the “IC50 (read off the curve)” value [5] was ~8 µg/mL, the absorbance at 492 nm (P64K-VEGFKDR- (human) [6]) was 2.77 and the “fold affinity against scFv 2H1” value [7] was 5 to 20 fold. For the same binder, the “absorbance at 492 nm” value [8] was 2.84, the “absorbance at 492 nm” value [9] was 2.89 and the “absorbance at 492 nm” value (mouse VEGF (Peprotech) [10]) was 1.43. For the same binder, the Kd [11] was 26.1 nM.

B6: scFv L3H7 antibody fragment (scFv)
scFv: QQVQLVQSGAEVKKPGESLKISCKGSGYSFTSYWIGWVRQMPGKGLEWMGIIYPGDSDTRYSPSFQGQVTISADKSISTAYLQWSSLKASDTAMYYCARPYATDTRIWGQGTMVTVSSAPQAKSSGSGSESKVDQAVVTQEPSLTVSPGGTVTLTCASSTGAVTSGNYPNWFQQRPGQPPRALIYSTSNKHSWTPARFSGSLLGGKAALTLSGAQPEDEAEYYCRLSYDLARPVFGGGTKLTVLG
notes: soluble, from E. coli
B6 was tested, and the “IC50 (read off the curve)” value [5] was ~10 µg/mL, the absorbance at 492 nm (P64K-VEGFKDR- (human) [6]) was 2.47 and the “fold affinity against scFv 2H1” value [7] was 5 to 20 fold. The “absorbance at 492 nm” value [8] was 2.54, the “absorbance at 492 nm” value [9] was 2.51 and the “absorbance at 492 nm” value (mouse VEGF (Peprotech) [10]) was 1.12. The Kd [11] was 87.3 nM.

B7: scFv L3H5 antibody fragment (scFv)
scFv: QQVQLVQSGAEVKKPGESLKISCKGSGYSFTSYWIGWVRQMPGKGLEWMGIIYPGDSDTRYSPSFQGQVTISADKSISTAYLQWSSLKASDTAMYYCARLVHRYRAIWGQGTMVTVSSAPQAKSSGSGSESKVDQAVVTQEPSLTVSPGGTVTLTCASSTGAVTSGNYPNWFQQRPGQPPRALIYSTSNKHSWTPARFSGSLLGGKAALTLSGAQPEDEAEYYCRLSYDLARPVFGGGTKLTVLG
notes: soluble, from E. coli
In the case of B7, the “IC50 (read off the curve)” value [5] is reported as ~9 µg/mL, the absorbance at 492 nm (P64K-VEGFKDR- (human) [6]) is reported as 2.61 and the “absorbance at 492 nm” value [8] is reported as 2.78. The “absorbance at 492 nm” value [9] was 2.8, the “absorbance at 492 nm” value (mouse VEGF (Peprotech) [10]) was 1.39 and the Kd [11] was 42.1 nM.

B8: phage displayed scFv clone 3F3 (scFv)
scFv: QQVQLVQSGAEVKKPGESLKISCKGSGYSFTSYWIGWVRQMPGKGLEWMGIIYPGDSDTRYSPSFQGQVTISADKSISTAYLQWSSLKASDTAMYYCARQGTHNRKIWGQGTMVTVSSAPQAKSSGSGSESKVDQAVVTQEPSLTVSPGGTVTLTCASSTGAVTSGNYPNWFQQRPGQPPRALIYSTSNKHSWTPARFSGSLLGGKAALTLSGAQPEDEAEYYCLLSYSGARPVFGGGTKLTVLG
modifications: Displayed on M13 phage as a protein III fusion; the phage part is not in the letters.
notes: also called VH H6
B8 was tested, and the “fold IC50 (relative affinity) against the original phage displayed scFv 2H1” value (human GST-VEGF) was 6 to 10 fold.

B9: phage displayed scFv clone 4D8 (scFv)
scFv: QQVQLVQSGAEVKKPGESLKISCKGSGYSFTSYWIGWVRQMPGKGLEWMGIIYPGDSDTRYSPSFQGQVTISADKSISTAYLQWSSLKASDTAMYYCARPYATDTRIWGQGTMVTVSSAPQAKSSGSGSESKVDQAVVTQEPSLTVSPGGTVTLTCASSTGAVTSGNYPNWFQQRPGQPPRALIYSTSNKHSWTPARFSGSLLGGKAALTLSGAQPEDEAEYYCLLSYSGARPVFGGGTKLTVLG
modifications: Displayed on M13 phage as a protein III fusion; the phage part is not in the letters.
notes: also called VH H7
For B9, the “fold IC50 (relative affinity) against the original phage displayed scFv 2H1” value (human GST-VEGF) was 6 to 10 fold.
